In article PMC7088854 (Molecular and Cellular Biochemistry, 2009):
Substitutions are numbered along the chain they refer to. Names and notes keep the numbering of the source.

T1: Myc-DC-SIGNR (UniProt Q9H2X3 1-399)
T1 sequence (looked up): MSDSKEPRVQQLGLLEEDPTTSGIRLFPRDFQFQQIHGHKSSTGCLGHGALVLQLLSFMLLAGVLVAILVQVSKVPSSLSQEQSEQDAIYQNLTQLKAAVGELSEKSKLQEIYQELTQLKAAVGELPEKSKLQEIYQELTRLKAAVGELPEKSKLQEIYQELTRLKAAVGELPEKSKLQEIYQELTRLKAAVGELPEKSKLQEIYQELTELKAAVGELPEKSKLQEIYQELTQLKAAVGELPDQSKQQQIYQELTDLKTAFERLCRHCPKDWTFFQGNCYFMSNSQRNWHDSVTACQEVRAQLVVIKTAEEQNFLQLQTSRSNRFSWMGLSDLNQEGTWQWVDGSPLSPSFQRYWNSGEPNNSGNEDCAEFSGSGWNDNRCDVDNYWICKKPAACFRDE

B1: Flag-LSECtin M1 (N73A) (receptor, UniProt Q6UXB4 1-293, looked up)
chain: MDTTRYSKWGGSSEEVPGGPWGRWVHWSRRPLFLALAVLVTTVLWAVILSILLSKASTERAALLDGHDLLRTAASKQTAALGALKEEVGDCHSCCSGTQAQLQTTRAELGEAQAKLMEQESALRELRERVTQGLAEAGRGREDVRTELFRALEAVRLQNNSCEPCPTSWLSFEGSCYFFSVPKTTWAAAQDHCADASAHLVIVGGLDEQGFLTRNTRGRGYWLGLRAVRHLGKVQGYQWVDGVSLSFSHWNQGEPNDAWGRENCVMMLHTGLWNDAPCDSEKDGWICEKRHNC
B2: Flag-LSECtin M2 (N159A) (receptor, UniProt Q6UXB4 1-293, looked up)
chain: B1 chain with A73N, N159A
B3: Flag-LSECtin D3 (deficiency of the CRD/CTLD domain) (domain or fragment, UniProt Q6UXB4 1-162, looked up)
chain: MDTTRYSKWGGSSEEVPGGPWGRWVHWSRRPLFLALAVLVTTVLWAVILSILLSKASTERAALLDGHDLLRTNASKQTAALGALKEEVGDCHSCCSGTQAQLQTTRAELGEAQAKLMEQESALRELRERVTQGLAEAGRGREDVRTELFRALEAVRLQNNSC
B4: Flag-LSECtin D1 (deletion of the potential endocytic motif) (receptor, UniProt Q6UXB4 1-293, looked up)
chain: MDTTRGGSSEEVPGGPWGRWVHWSRRPLFLALAVLVTTVLWAVILSILLSKASTERAALLDGHDLLRTNASKQTAALGALKEEVGDCHSCCSGTQAQLQTTRAELGEAQAKLMEQESALRELRERVTQGLAEAGRGREDVRTELFRALEAVRLQNNSCEPCPTSWLSFEGSCYFFSVPKTTWAAAQDHCADASAHLVIVGGLDEQGFLTRNTRGRGYWLGLRAVRHLGKVQGYQWVDGVSLSFSHWNQGEPNDAWGRENCVMMLHTGLWNDAPCDSEKDGWICEKRHNC

Biological target: T1, Myc-DC-SIGNR
Assay: co-IP

Row | Binder | co-precipitated amount relative to wild-type LSECtin (onefold)
1 | B1 | 0.8 fold of wild type
2 | B2 | 1.5 fold of wild type
3 | B3 | 0.8 fold of wild type
4 | B4 | 1.2 fold of wild type
